Results as given in PMC12071194.

Experiments:
mCherry-BNIP3 (WT) = experiment: immunoblot for dimers; immunoblot analysis of WT or OMP25C hybrids of BNIP3 and NIX expressed in B/N DKO cells
mCherry-NIX (WT) = mCherry-NIX (WT) (UniProt O60238); experiment: as above

mCherry-BNIP3 (WT) (natural protein), sequence (Q12983 whole entry): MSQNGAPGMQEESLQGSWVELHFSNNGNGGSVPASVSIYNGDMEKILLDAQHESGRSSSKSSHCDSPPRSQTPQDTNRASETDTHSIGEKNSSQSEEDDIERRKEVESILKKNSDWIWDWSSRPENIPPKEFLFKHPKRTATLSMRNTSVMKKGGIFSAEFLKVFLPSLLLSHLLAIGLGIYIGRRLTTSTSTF
mCherry-NIX (WT), O60238 1-219 (natural protein; other documents disagree on this pair), sequence (O60238 whole entry): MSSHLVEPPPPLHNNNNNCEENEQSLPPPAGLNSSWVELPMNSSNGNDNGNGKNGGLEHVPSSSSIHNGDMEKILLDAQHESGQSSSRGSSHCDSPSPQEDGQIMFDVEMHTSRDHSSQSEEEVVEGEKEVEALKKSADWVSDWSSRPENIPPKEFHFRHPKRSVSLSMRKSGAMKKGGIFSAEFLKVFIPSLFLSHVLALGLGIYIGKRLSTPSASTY

Row | Substance | stoichiometry N (mCherry-BNIP3 (WT)) | stoichiometry N (mCherry-NIX (WT))
1 | mCherry-BNIP3 (WT) (natural protein) | 2 | 
2 | mCherry-NIX (WT), O60238 1-219 (natural protein; other documents disagree on this pair) |  | 2
